Results reported in patent publication US20150111836A1, “CELLULAR APOBEC3 PROTEINS AND MODULATORS THEREOF FOR REGULATING DNA REPAIR PROCESSES AND TREATING PROLIFERATIVE DISEASES” (priority 2012, published 2015).
Where a SMILES comes first, the peptide text is derived from it. The star is where a group is joined. Cbz = O=C(OCc1ccccc1)*; CH2F = FC*

Key:
H9 cells [1] = assay: γ-H2AX / RPA foci after IR in A3G knockdown H9 cells; format: cell-based, human
Experimental: (§1) For short hairpin (sh) RNA expression, the following puromycin resistance-encoding vectors were used: A3G-specific pLKO.1.shA3G (TRCN0000052188, clone NM_021822.1-398s1 c1; Sigma-Aldrich), having the nucleic acid sequence 5′-CCGG-[…]-CTCGAG-[…]-TTTTTG-3′, as denoted by SEQ ID NO. 92, and the unrelated control cyprinid herpes virus 3 (CyHV3)-specific pLKO.1.shCtr1. […]. Culture supernatants were collected 48 h post transfection, centrifuged for 10 min at 4,000 rpm to remove cell debris and then for 1 h at 35,000 rpm using a swing SW-41 rotor (Beckman). H9 cells were transduced with the concentrated vectors by spinoculation for 1 h at 1,000 rpm and selected with puromycin (1 μg ml^−1) for 3-10 days post transduction.
(§2) Cells were irradiated by exposure to a ^60Co source producing 1 Gy sec^−1 γ-radiation, or mock-irradiated. Following incubation at 37° C., cells were fixed, attached to glass slides by cytospin, permeabilized with detergent and blocked with 10% normal goat serum. Cells were then incubated with A3G-specific rabbit polyclonal antibody, γ-H2AX-specific monoclonal antibody, or RPA32-specific monoclonal antibody, followed by incubation with goat anti-rabbit Cy-5-conjugated antibody, goat anti-mouse Cy-2-conjugated antibody and DAPI. Slides were mounted and examined by Zeiss LSM 710 confocal microscope. Data were collected sequentially using a ×63 objective with 7-fold averaging at a resolution of […], Z-sections were obtained using an optical slice of less than 1 μm. Data were analyzed with the Zen 2009.

A3G [2] = assay: shRNA-mediated knockdown of A3G expression in H9 cells; format: cell-based, human; conditions: Western blot, FIG. 8F
Experimental: as §1
Transfected or infected cells were harvested, washed once in PBS, re-suspended in SDS-gel loading buffer and boiled for 10 min. Samples of 5×10^4 cells were analyzed by SDS-12% polyacrylamide gel electrophoresis (SDS-PAGE), followed by transfer of the proteins to polyvinylidene fluoride (PVDF) membrane. HIV-1 proteins were detected by using rabbit anti-Vif and monoclonal anti-Ca-p24 antibodies. A3G protein was identified by rabbit polyclonal anti-A3G.

H9 cells [3] = assay: Cell cycle analysis following IR; format: cell-based, human; conditions: H9-shA3G cells, 4 Gy, 20 hours, FIG. 8J
Experimental: PBMC, H9 or puromycin-resistant H9-shRNA cells were irradiated (4 Gy) or mock-irradiated. Following 20 h incubation at 37° C., cells were fixed with methanol for 1 h at −20° C., washed with phosphate buffered saline (PBS), treated with RNase A (50 μg ml ^−1) and stained with PI (5 μg ml^−1). The total cellular DNA content was determined by flow cytometry using FACScan. Cell cycle data were analyzed by the CellQuest Pro software and include 10,000 events gated on singlet cells.

A3G [4] = target: T1, A3G (Homo sapiens, UniProt Q9HC16); format: biochemical; conditions: for inhibition of A3G deaminase activity: peptide at 1 μM, FIG. 15B; for inhibition of A3G mediated deamination by A3G-derived peptides: 1-100 μM, FIG. 19B
T1 construct: Myc (C); His6 (C); made in house; host or cells: 293T cells (human embryonic kidney), transfected with pcDNA3.1-A3GMyc-His6, Ni-NTA purified
T1 sequence (Q9HC16 whole entry): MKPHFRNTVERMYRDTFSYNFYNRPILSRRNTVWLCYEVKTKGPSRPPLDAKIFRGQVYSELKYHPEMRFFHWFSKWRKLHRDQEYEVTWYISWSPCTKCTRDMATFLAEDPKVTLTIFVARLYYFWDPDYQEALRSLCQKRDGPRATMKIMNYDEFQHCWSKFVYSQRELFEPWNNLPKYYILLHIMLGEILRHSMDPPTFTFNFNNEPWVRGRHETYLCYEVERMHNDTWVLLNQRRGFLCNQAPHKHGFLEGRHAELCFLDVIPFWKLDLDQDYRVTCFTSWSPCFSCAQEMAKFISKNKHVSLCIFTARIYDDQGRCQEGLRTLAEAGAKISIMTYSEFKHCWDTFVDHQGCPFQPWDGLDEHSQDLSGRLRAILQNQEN
Experimental: Deaminase activity of purified enzyme and virion-associated A3G protein was examined as previously described. Briefly, A3G deamination reactions were performed in a total volume of 10 μl in 25 mM Tris, pH 7.0, and 0.01-1 fmol single-stranded (ss) deoxyoligonucleotide substrate at 37° C. The reaction was terminated by heating to 95° C. for 5 min. One μl of the reaction mixture was used for PCR amplification performed in 20 μl buffer S, using the following program: 1 cycle at 95° C. for 3 min, followed by 30 cycles of annealing at 61° C. for 30 s and denaturing at 94° C. for 30 s. Aliquots of the PCR products (10 μl) were incubated with Eco147I restriction enzyme for 1 h at 37° C. Completion of the restriction reaction was verified by using positive-control substrate containing CCU instead of CCC. Restriction-reaction products were loaded onto 14% gels and separated by PAGE. Gels were stained with SYBR gold nucleic acid stain diluted 1:10,000 in 0.5× Tris-Borate-EDTA buffer (TBE, pH 7.8), visualized by UV light (312 nm), captured by an Olympus C-5050 charge-coupled device (CCD) camera and analyzed by optical density (OD) scan using the TINA2.0 densitometry software. Assessment of A3G entrapped in virions was carried out with concentrated viruses stocks of 3-5 μg of p24/μl) suspended in PBS containing Triton X-100 at final concentration of 0.1% (vv) and 50 μg/ml RNase A (Sigma-Aldrich). Deamination reactions were incubated for 1 h at 37° C.
A panel of 46 HIV-1 Vif-derived 15-mer peptides (obtained through the NIH AIDS Research and Reference Reagent Program) were screened for inhibition of purified A3G-His6 catalytic activity in a standard cytidine deamination assay. […] A fluorescein-conjugated peptide (kindly provided by Dr. Assaf Friedler) was used to assess the peptide uptake by H9 cells.

H9 cells [5] = assay: DSB repair (γ-H2AX staining) in irradiated H9 cells pre-incubated with Vif peptides; format: cell-based, human; conditions: 2 h pre-incubation with 100 μM peptide, 4 Gy IR, stained after 8 h
Experimental: as §2
A panel of 46 HIV-1 Vif-derived 15-mer peptides (obtained through the NIH AIDS Research and Reference Reagent Program) were screened for inhibition of purified A3G-His6 catalytic activity in a standard cytidine deamination assay. The inhibitory peptide Vif25-39 corresponds to amino acids 25-39 in HIV-1 HXBII Vif. A fluorescein-conjugated peptide (kindly provided by Dr. Assaf Friedler) was used to assess the peptide uptake by H9 cells. […]

With “5′-CCGG-GCCAGGTGTATTCCGAACTTA-CTCGAG-TAAGTTCGGAATACACCTGGC-TTTTTG-3′ (DNA CCGGGCCAGGTGTATTCCGAACTTACTCGAGTAAGTTCGGAATACACCTGGCTTTTTG; expressed or natural sequence) [shA3G, A3G-specific shRNA vector TRCN0000052188]” the “RPA recruitment to damage-induced foci following IR” value (H9 cells [1]; H9-shA3G cells, 4 Gy, 2 h, FIG. 10A) was “did not form such foci”, the “γ-H2AX foci in the hours following IR” value (H9 cells [1]; H9-shA3G cells, 4 Gy, up to 8 hours, FIG. 8G) was “did not decrease” and the “reduction of A3G expression compared to H9-shCtr1 cells” value (A3G [2]) was 70-80%. The “G2M arrest following IR” value (H9 cells [3]) was “did not undergo G2M arrest”.

For COC(=O)C[C@H](NC(=O)[C@H](C)NC(=O)[C@@H](NC(=O)OCc1ccccc1)C(C)C)C(=O)CF [z-VAD-fmk, reference compound] (Cbz-Val-Ala-Asp(OMe)-CH2F), the “DSB incidence in the presence of caspase inhibitor” value (H9 cells [1]; 20 μM, 1 hour pre-incubation, γ-H2AX 6 hours after IR, FIG. 8H) was “comparable with cells treated with mock”.

“DCFSESAIRNAILGH (Viral - Vif peptide) [Vif113-127]” was tested, and the “inhibition of A3G deaminase activity” value (A3G [4]) was “inhibited”.

“DLADQLIHLYYFDCF (Viral - Vif peptide) [Vif101-115]” was tested, and the “inhibition of A3G deaminase activity” value (A3G [4]) was “inhibited”.

In the case of “GWFYRHHYESTHPRI (Viral - Vif peptide) [Vif37-51]”, the “inhibition of A3G deaminase activity” value (A3G [4]) was “inhibited”.

For “IHLYYFDCF (Viral - Vif peptide) [SEQ ID NO. 71]”, the “inhibition of A3G mediated deamination by short Vif- and A3F-derived peptides” value (A3G [4]; 0.001 to 10 μM, FIG. 19A) was “distinct inhibitory pattern”.

With IVWQVDRMRIRTWKS [Vif9-23] the “inhibition of A3G deaminase activity” value (A3G [4]) was “inhibited”.

“RMHNDTWVLLNQRRG (listed as Homo sapiens) [SEQ ID NO. 84]” was tested, and the “inhibition of A3G mediated deamination by A3G-derived peptides” value (A3G [4]) was “marked inhibitory effect”.

“WRKKRYSTQVDPDLA (Viral - Vif peptide) [Vif89-103, control peptide]” was tested, and the “cells containing DSBs” value (H9 cells [5]) was under 8% and the “inhibition of A3G-mediated deamination” value (A3G [4]; peptide at 100 μM) was “did not inhibit”.

For “WVRGRHETYLCYEVE (listed as Homo sapiens) [SEQ ID NO. 83]”, the “inhibition of A3G mediated deamination by A3G-derived peptides” value (A3G [4]) was “marked inhibitory effect”.
